# B1: PHD finger protein 12 (Homo sapiens), Q96QT6 (parent)
# chain: MWEKMETKTIVYDLDTSGGLMEQIQALLAPPKTDEAEKRSRKPEKEPRRSGRATNHDSCDSCKEGGDLLCCDHCPAAFHLQCCNPPLSEEMLPPGEWMCHRCTVRRKKREQKKELGHVNGLVDKSGKRTTSPSSDTDLLDRSASKTELKAIAHARILERRASRPGTPTSSASTETPTSEQNDVDEDIIDVDEEPVAAEPDYVQPQLRRPFELLIAAAMERNPTQFQLPNELTCTTALPGSSKRRRKEETTGKNVKKTQHELDHNGLVPLPVKVCFTCNRSCRVAPLIQCDYCPLLFHMDCLEPPLTAMPLGRWMCPNHIEHVVLNQKNMTLSNRCQVFDRFQDTVSQHVVKVDFLNRIHKKHPPNRRVLQSVKRRSLKVPDAIKSQYQFPPPLIAPAAIRDGELICNGIPEESQMHLLNSEHLATQAEQQEWLCSVVALQCSILKHLSAKQMPSHWDSEQTEKADIKPVIVTDSSVTTSLQTADKTPTPSHYPLSCPSGISTQNSLSCSPPHQSPALEDIGCSSCAEKSKKTPCGTANGPVNTEVKANGPHLYSSPTDSTDPRRLPGANTPLPGLSHRQGWPRPLTPPAAGGLQNHTVGIIVKTENATGPSSCPQRSLVPVPSLPPSIPSSCASIENTSTLQRKTVQSQIGPPLTDSRPLGSPPNATRVLTPPQAAGDGILATTANQRFSSPAPSSDGKVSPGTLSIGSALTVPSFPANSTAMVDLTNSLRAFMDVNGEIEINMLDEKLIKFLALQRIHQLFPSRVQPSPGSVGTHQLASGGHHIEVQRKEVQARAVFYPLLGLGGAVNMCYRTLYIGTGADMDVCLTNYGHCNYVSGKHACIFYDENTKHYELLNYSEHGTTVDNVLYSCDFSEKTPPTPPSSIVAKVQSVIRRRRHQKQDEEPSEEAAMMSSQAQGPQRRPCNCKASSSSLIGGSGAGWEGTALLHHGSYIKLGCLQFVFSITEFATKQPKGDASLLQDGVLAEKLSLKPHQGPVLRSNSVP
# B2: PHD finger protein 12 (Mus musculus), Q5SPL2 (parent)
# chain: MWEKMETKTIVYDLDTSGGLMEQIQALLAPPKTDEAEKRSRKPEKESRRSGRATNHDSCDSCKEGGDLLCCDHCPAAFHLQCCNPPLSEEMLPPGEWMCHRCTVRRKKREQKKELGHVNGLVDKSSKRTTSPSSDTDLLDRPASKTELKAIAHARILERRASRPGTPTSNASTETPTSEHNDVDEDIVDVDEEPVAAEPDYVQPQLRRPFELLIAAAMERNPTQFQLPNELTCTTALPGSSKRRRKEETTGKNVKRTQHELDHNGLVPLPVKVCFTCNRSCRVAPLIQCDYCPLLFHMDCLEPPLTAMPLGRWMCPNHIEHVVLNQKNLTLSNRCQVFDRFQDTISQHVVKVDFLNRIHKKHPPNRRVLQSVKRRSLKVPDAIKSQYQFPPPLIAPAAIRDGELICSGVPEESQTHLLNSEHLATQAEQQEWLCSVVALQCSILKHLSAKQMPSPWDSEQTEKADIKPVIVTDSSITTSLQTADKAPLPSHYPLSCPSAVSTQNSLGCSPPHQPPTLEDISCSSCVEKSKKAPCGTANGPVNTEIKANGPHLYSSPTDSTDPRRLPGANTPLPGLTHRQGWPRPLTPPSAGGLQNHVGIIVKTENATGPSSCPQRSLVPVPSLPPSIPSSCASIENTSTLHRKTVQSQIGPSSTESRPLGSPPNATRVLTPPQAAGDSILATGANQRFCSPAPSSDGKVSPGTLSIGSALTVPSFPANSTAMVDLTNSLRAFMDVNGEIEINMLDEKLIKFLALQRVHQLFPSRVQASPGNVGTHPLASGGHHPEVQRKEVQARAVFCPLLGLGGAVNMCYRTLYIGTGADMDVCLTNYGHCNYVSGKHACIFYDENTKHYELLNYSEHGTTVDNVLYSCDFSEKTPPTPPSSIVAKVQSVIRRRRHQKQDEEPSEEAAMMSSQAQGPQRRPCNCKASSSSLIGGSGAGWEGTALLHHGSYIKLGCLQFVFSITEFATKQPKGDASLLQDGVLAEKLSLKPHQGPVLRSNSVP
# B3: Mortality factor 4-like protein 1 (Homo sapiens), Q9UBU8-2 (parent)
# chain: MAPKQDPKPKFQEGERVLCFHGPLLYEAKCVKVAIKDKQVKYFIHYSGWNKNWDEWVPESRVLKYVDTNLQKQRELQKANQEQYAEGKMRGAAPGKKTSGLQQKNVEVKTKKNKQKTPGNGDGGSTSETPQPPRKKRARVDPTVENEETFMNRVEVKVKIPEELKPWLVDDWDLITRQKQLFYLPAKKNVDSILEDYANYKKSRGNTDNKEYAVNEVVAGIKEYFNVMLGTQLLYKFERPQYAEILADHPDAPMSQVYGAPHLLRLFVRIGAMLAYTPLDEKSLALLLNYLHDFLKYLAKNSATLFSASDYEVAPPEYHRKAV
# Variants of: B1
# Settings: with MORF4L1, Q9UBU8-2
row,Variant,effect of a mutation on the interaction
1,P228A,decreasing interaction
2,F225A,decreasing interaction
3,F210A,decreasing interaction
4,L213A,decreasing interaction
5,L227A,decreasing interaction
6,N221E,decreasing interaction

# Variants of: B2
# Settings: with MORF4L1, Q9UBU8-2
row,Variant,effect of a mutation on the interaction
1,L213A,disrupting interaction
2,L227A,disrupting interaction
3,F210A,disrupting interaction
4,F225A,disrupting interaction strength
5,P228A,decreasing interaction

# Variants of: B3
# Settings: with phf12_mouse Phf12, Q5SPL2
row,Variant,effect of a mutation on the interaction
1,V227A,decreasing interaction
2,L168A,decreasing interaction
3,L287A,decreasing interaction

# Variants of: B3
# Settings: with phf12_human PHF12, Q96QT6
row,Variant,effect of a mutation on the interaction
1,V227A,decreasing interaction
2,Y235A,disrupting interaction
3,M228A,decreasing interaction
4,L287A,decreasing interaction
5,W172A,decreasing interaction
6,V268A,decreasing interaction

# Reference: IntAct's records for PubMed 22244764
